Measurements: paper PMC11162425

Target: Lcl C-terminal domain (Lcl-CTD, residues 252 to 401) (Legionella pneumophila strain 130b)
Test: SEC-MALS

Substance: Lcl C-terminal domain (Lcl-CTD, residues 252 to 401) (domain or fragment)
- stoichiometry N: 3
